The text below walks through data of US20060172360.

Data set [1] has as its target GST (glutathione S-transferase, negative control substrate) [GST: P08515].
Data set [2] concerns the target GST-MKK7 (unactive/inactive, Upstate) [GST: P08515].

B1: HA-JIK (human JNK/SAPK-inhibitory kinase ligated with HA-tag at its N-terminus) (protein)
chain: MRKGVLKDPEIADLFYKDDPEELFIGLHEIGHGSFGAVYFATNAHTSEVVAIKKMSYSGKQTHEKWQDILKEVKFLRQLKHPNTIEYKGCYLKEHTAWLVMEYCLGSASDLLEVHKKPLQEVEIAAITHGALHGLAYLHSHALIHRDIKAGNILLTEPGQVKLADFGSASMASPANSFVGTPYWMAPEVILAMDEGQYDGKVDIWSLGITCIELAERKPPLFNMNAMSALYHIAQNDSPTLQSNEWTDSFRRFVDYCLQKIPQERPTSAELLRHDFVRRDRPLRVLIDLIQRTKDAVRELDNLQYRKMKKILFQETRNGPLNESQEDEEDSEHGTSLNREMDSLGSNHSIPSMSVSTGSQSSSVNSMQEVMDESSSELVMMHDDESTINSSSSVVHKKDHVFIRDEAGHGDPRPEPRPTQSVQSQALHYRNRERFATIKSASLVTRQIHEHEQENELREQMSGYKRMRRQHQKQLIALENKLKAEMDEHRLKLQKEVETHANNSSIELEKLAKKQVAIIEKEAKVAAADEKKFQQQILAQQKKDLTTFLESQKKQYKICKEKIKEEMNEDHSTPKKEKQERISKHKENLQHTQAEEEAHLLTQQRLYYDKNCRFFKRKIMIKRHEVEQQNIREELNKKRTQKEMEHAMLIRHDESTRELEYRQLHTLQKLRMDLIRLQHQTELENQLEYNKRRERELHRKHVMELRQQPKNLKAMEMQIKKQFQDTCKVQTKQYKALKNHQLEVTPKNEHKTILKTLKDEQTRKLAILAEQYEQSINEMMASQALRLDEAQEAECQALRLQLQQEMELLNAYQSKIKMQTEAQHERELQKLEQRVSLRRAHLEQKIEEELAALQKERSERIKNLLERQEREIETFDMESLRMGFGNLVTLDFPKEDYR
In the case of B1, the “in-vitro phosphorylation of the substrate (immune complex phosphorylation method, [γ-32P]ATP, SDS-PAGE, autoradiography)” value in data set [1] was “The phosphorylation was not observed when GST was used as a substrate for a negative control”; in data set [2] it was “The phosphorylation of GST-MKK7 by JIK was observed”.

B2: FLAG-PAK4 (human p21-activated kinase 4 ligated with FLAG-tag at its N-terminus) (protein)
chain: MFGKRKKRVEISAPSNFEHRVHTGFDQHEQKFTGLPRQWQSLIEESARRPKPLVDPACITSIQPGAPKTIVRGSKGAKDGALTLLLDEFENMSVTRSNSLRRDSPPPPARARQENGMPEEPATTARGGPGKAGSRGRFAGHSEAGGGSGDRRRAGPEKRPKSSREGSGGPQESSRDKRPLSGPDVGTPQPAGLASGAKLAAGRPFNTYPRADTDHPSRGAQGEPHDVAPNGPSAGGLAIPQSSSSSSRPPTRARGAPSPGVLGPHASEPQLAPPACTPAAPAVPGPPGPRSPQREPQRVSHEQFRAALQLVVDPGDPRSYLDNFIKIGEGSTGIVCIATVRSSGKLVAVKKMDLRKQQRRELLFNEVVIMRDYQHENVVEMYNSYLVGDELWVVMEFLEGGALTDIVTHTRMNEEQIAAVCLAVLQALSVLHAQGVIHRDIKSDSILLTHDGRVKLSDFGFCAQVSKEVPRRKSLVGTPYWMAPELISRLPYGPEVDIWSLGIMVIEMVDGEPPYFNEPPLKAMKMIRDNLPPRLKNLHKVSPSLKGFLDRLLVRDPAQRATAAELLKHPFLAKAGPPASIVPLMRQNRTR
In the case of B2, the “in-vitro phosphorylation of the substrate (immune complex phosphorylation method, [γ-32P]ATP, SDS-PAGE, autoradiography)” value in data set [1] is listed as “The phosphorylation was not observed when GST was used as a substrate for a negative control”; in data set [2], “The phosphorylation of GST-MKK7 by PAK4 was observed”.
